Measurements published in US20190248900A1 (Y BIOLOGICS, published 2019).

Columns and labels:
Test in all cases: ELISA
[1] = target: T1, PLXDC1 (Homo sapiens (Human), UniProt Q8IUK5 19-426)
T1 sequence: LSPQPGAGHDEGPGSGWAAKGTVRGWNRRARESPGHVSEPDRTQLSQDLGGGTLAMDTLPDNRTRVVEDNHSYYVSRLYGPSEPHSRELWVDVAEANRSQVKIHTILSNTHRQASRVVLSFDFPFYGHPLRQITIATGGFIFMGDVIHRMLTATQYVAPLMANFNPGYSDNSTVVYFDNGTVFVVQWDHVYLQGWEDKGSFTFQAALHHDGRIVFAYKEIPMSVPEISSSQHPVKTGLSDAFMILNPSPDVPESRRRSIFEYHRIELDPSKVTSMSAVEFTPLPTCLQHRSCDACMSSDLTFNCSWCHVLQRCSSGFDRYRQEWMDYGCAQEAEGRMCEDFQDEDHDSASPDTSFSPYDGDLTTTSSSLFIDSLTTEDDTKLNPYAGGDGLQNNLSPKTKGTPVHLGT

[2] = target: T2, C2orf28 (Homo sapiens (Human), UniProt Q6UW56 31-199)
T2 sequence: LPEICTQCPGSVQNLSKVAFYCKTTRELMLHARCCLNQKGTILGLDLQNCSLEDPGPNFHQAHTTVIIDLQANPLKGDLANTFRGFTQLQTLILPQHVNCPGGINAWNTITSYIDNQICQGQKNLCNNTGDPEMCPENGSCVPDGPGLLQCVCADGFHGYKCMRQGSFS

[3] = target: T3, DMP1 (Homo sapiens (Human), UniProt Q13316 17-513)
T3 sequence: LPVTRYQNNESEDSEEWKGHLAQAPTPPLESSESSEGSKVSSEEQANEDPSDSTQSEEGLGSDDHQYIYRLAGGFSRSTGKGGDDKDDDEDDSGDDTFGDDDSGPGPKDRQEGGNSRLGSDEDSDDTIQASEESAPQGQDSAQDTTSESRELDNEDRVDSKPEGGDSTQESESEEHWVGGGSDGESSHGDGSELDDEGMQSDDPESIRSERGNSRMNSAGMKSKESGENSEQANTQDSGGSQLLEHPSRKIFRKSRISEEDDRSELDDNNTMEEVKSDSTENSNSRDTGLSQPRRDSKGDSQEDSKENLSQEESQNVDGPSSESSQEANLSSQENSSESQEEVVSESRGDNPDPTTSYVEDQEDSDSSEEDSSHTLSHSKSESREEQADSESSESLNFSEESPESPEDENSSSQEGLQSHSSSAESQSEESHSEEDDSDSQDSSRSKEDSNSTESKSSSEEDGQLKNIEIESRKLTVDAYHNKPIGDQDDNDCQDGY

[4] = target: SUSD1 (Homo sapiens (Human), UniProt Q6UWL2 30-721)
SUSD1, sequence (Q6UWL2 30-721 limits assumed): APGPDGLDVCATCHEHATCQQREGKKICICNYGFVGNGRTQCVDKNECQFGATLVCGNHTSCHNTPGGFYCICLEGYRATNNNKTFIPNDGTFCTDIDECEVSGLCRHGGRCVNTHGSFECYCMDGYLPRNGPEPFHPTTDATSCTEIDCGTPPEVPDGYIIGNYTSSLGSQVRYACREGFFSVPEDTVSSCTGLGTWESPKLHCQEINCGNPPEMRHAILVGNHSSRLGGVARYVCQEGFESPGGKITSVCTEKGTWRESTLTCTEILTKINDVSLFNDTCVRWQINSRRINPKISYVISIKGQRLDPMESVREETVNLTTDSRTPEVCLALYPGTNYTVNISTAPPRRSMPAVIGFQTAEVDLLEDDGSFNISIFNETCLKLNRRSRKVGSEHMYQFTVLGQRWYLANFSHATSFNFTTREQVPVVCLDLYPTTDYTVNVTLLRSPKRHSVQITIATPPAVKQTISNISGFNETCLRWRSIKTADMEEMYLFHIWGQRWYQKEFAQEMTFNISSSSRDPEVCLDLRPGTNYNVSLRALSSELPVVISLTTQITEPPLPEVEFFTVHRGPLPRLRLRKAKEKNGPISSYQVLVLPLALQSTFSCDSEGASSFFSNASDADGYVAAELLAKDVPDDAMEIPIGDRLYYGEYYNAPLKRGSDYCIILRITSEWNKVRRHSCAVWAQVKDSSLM

[5] = target: T4, DKK4 (Homo sapiens (Human), UniProt Q9UBT3 19-224)
T4 sequence: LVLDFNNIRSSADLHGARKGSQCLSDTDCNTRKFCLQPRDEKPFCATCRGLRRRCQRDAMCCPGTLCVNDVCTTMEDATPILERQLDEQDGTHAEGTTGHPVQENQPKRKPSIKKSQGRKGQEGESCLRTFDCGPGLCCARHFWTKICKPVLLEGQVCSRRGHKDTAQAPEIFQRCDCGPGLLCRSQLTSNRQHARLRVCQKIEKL

[6] = target: T5, LRTM1 (Homo sapiens (Human), UniProt Q9HBL6 28-288)
T5 sequence: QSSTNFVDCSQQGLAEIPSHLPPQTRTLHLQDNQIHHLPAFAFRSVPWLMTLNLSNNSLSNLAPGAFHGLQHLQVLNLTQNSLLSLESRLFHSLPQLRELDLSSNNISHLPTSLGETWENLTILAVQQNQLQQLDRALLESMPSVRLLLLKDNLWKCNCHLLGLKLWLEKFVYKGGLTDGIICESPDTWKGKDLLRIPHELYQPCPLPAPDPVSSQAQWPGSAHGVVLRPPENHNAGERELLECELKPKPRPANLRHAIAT

[7] = target: T6, SPOCK2 (Homo sapiens (Human), UniProt Q92563 23-424)
T6 sequence: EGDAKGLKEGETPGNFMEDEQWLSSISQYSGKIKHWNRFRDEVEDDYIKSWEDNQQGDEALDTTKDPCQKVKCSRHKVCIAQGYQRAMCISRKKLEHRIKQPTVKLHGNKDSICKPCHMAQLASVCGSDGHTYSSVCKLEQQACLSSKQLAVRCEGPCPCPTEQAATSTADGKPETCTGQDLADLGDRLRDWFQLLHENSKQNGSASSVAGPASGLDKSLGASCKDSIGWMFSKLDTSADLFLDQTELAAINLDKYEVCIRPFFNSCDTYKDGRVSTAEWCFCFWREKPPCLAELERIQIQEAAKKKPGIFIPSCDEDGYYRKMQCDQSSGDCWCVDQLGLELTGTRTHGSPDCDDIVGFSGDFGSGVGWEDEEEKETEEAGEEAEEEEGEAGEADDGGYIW

[8] = target: T7, TMEFF2 (Homo sapiens (Human), UniProt Q9UIK5 41-320)
T7 sequence: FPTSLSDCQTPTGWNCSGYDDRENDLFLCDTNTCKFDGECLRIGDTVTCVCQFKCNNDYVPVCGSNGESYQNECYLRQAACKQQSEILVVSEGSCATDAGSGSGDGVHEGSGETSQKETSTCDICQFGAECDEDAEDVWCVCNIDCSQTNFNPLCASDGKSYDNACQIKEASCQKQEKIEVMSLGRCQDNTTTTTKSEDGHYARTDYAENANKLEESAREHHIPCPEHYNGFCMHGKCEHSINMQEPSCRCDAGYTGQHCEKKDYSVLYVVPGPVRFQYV

[9] = target: T8, FZD10 (Homo sapiens (Human), UniProt Q9ULW2 21-225)
T8 sequence: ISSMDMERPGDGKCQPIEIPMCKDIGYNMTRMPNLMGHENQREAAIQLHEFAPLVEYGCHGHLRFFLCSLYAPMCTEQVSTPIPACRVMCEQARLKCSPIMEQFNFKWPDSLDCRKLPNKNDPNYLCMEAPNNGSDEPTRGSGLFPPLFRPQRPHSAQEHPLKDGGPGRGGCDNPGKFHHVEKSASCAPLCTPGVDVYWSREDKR

Measured: binding result

B1: PD1-41C9 (antibody, V domains shown)
VH: QMQLVESGGGVVQPGRSLRLSCAASGFTFSSYAMHWVRQAPGKGLEWVAVISYDGSNKYYADSVKGRFTISRDNSKNTLYLQMNRLRSEDTAVYYCTTTTFDSWGQGTLITVSS
VL: DIVMTQTPLSLPVTPGEAASISCRSSQSLLDSEDGNTYLDWYLQKPGQSPQLLIYTLSHRASGVPDRFSGSGSGTDFTLKISRVAAEDVGLYYCLQRMGFPYTFGQGTKLDIK
notes: scFv-phage in the screening ELISA; whole IgG in the other assays
no binding (tested: 1 ug/ml): all assays above

B2: PD1-49A2 (antibody, V domains shown)
VH: QVQLVESGGGVVQPGRSLRLSCAASGFTFSSYAMHWVRQAPGKGLEWVAVISYDGSNKYYADSVKGRFTISRDNPKNTLYLQMNSLRAEDTAVYYCTTTTFDSWGRGTLVTVSS
VL: DIVMTQSPLSLPVTPGEPASISCRSSQSLFDSDDGNTYLDWYLQKPGQSPQLLIYTLSHRASGVPDRFSGSGSGTDFTLKISRVEAEDVGIYYCLQRMGFPYTFGQGTKVEIK
notes: scFv-phage in the screening ELISA; whole IgG in the other assays; also called Parent 49A2
no binding (tested: 1 ug/ml): all assays above

B3: PD1-45D6 (antibody, V domains shown)
VH: QVQLVESGGGVVQPGRSLRLSCAASGFTFSSYAMHWVRQVPGKGLEWVAVISYDGNDKYYADSVKGRFTISRDNSKNTLYLQMNSLRAEDTAVYYCVPTTFEYWGQGSQVTVSS
VL: DIVMTQTPLSLPVTPGEAASISCRSSQSLLDSDDGKTYLDWYLQKPGQSPQLLIYTLSYRASGVPDRFSGSGSGTEFNLRISRVEAEDVGIYYCMQRVEFPFTFGQGTKLDIK
notes: as for B1
no binding (tested: 1 ug/ml): all assays above
